Data set [1] deals with T1, Grb14 SH2 domain (aa 426-540) (Homo sapiens, UniProt Q14449 Q14449:426-540).
T1 sequence: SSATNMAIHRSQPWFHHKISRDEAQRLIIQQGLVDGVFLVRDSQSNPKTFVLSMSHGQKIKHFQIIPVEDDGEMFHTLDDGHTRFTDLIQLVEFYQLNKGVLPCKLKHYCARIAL
The data set can be described thus: EMSA. Particulars: tags: GST; label: 32P. (In EMSA bound probe runs differently from free probe, usually more slowly.)

The target of a further data set is Grb7 PH-SH2 fragment (Homo sapiens, UniProt Q14451 Q14451:229-532). The data set can be described thus: EMSA. The following applies: tags: GST; label: 32P.
Chain of Grb7 PH-SH2 fragment (Q14451 229-532, one chain of several): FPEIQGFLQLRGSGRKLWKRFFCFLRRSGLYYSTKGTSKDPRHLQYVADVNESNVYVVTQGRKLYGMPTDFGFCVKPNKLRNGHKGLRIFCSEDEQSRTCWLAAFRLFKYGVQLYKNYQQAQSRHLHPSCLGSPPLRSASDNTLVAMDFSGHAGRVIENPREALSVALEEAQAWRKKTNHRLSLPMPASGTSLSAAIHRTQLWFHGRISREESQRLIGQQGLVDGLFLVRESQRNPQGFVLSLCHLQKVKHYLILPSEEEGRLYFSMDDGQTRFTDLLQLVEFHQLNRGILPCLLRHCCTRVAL

B1: erbB-2 3'-UTR U-rich probe (ssRNA)
RNA: UUUGUACAGAGUGCUUUUCUGUUUAGUUUUUACUUUUUUUGUUUUGUUUUUUUAAAGACGAAAUAAAGA
On to B1, for which the binding result (in data set [1]; with Grb7 PH-SH2 fragment) was “binds” throughout.

Values taken from patent US20040121323, “Mrna binding motif” (published 2004).
